In experiment [1] the target is T1, Drosophila melanogaster ecdysone receptor (monomeric) (Drosophila melanogaster, UniProt P34021 1-878).
T1 construct: also called EcR; dmEcR
T1 sequence (looked up): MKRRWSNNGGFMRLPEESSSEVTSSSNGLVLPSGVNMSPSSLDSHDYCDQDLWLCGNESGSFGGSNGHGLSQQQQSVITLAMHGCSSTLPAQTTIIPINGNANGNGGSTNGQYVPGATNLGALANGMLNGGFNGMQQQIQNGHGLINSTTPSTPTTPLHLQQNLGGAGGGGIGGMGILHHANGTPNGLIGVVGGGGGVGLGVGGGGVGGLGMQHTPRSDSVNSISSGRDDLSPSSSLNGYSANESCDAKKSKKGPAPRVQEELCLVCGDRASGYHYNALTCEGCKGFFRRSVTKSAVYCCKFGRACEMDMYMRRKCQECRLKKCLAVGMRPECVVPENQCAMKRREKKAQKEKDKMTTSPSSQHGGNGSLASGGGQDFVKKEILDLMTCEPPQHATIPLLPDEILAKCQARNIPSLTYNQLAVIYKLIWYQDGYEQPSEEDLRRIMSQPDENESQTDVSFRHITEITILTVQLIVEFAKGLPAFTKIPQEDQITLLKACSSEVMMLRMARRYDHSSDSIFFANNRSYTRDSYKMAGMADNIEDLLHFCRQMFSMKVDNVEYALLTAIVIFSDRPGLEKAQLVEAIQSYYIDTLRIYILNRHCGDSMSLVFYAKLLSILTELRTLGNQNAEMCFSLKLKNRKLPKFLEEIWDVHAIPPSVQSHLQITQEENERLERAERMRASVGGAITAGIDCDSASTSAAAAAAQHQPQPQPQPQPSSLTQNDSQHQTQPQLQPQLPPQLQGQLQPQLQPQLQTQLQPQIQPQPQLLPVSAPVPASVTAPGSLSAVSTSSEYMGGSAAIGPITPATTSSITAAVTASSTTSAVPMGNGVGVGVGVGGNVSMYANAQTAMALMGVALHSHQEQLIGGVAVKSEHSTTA
Description: gel mobility shift on 32P-labelled EcRE probe, proteins translated in vitro.
Description: The reactions were allowed to proceed at 23° C. for 5 minutes at which time ligand or vehicle was added and the reaction allowed to continue for 20 additional minutes. Band volumes were quantified using laser scanning densitometry.

The subject of experiment [2] is EcRE probe. Put plainly: Gel mobility shift analysis of EcRE probe binding by FDs. Conditions: 1 μM murA vs vehicle, extracts of transfected 293 cells. On the procedure:
Preparation of the invention fusion protein FDs for gel shift analysis by transient transfection into 293 cells was as follows: 300 ng of individual receptor plasmids and 100 ng pCH110 internal control plasmid were cotransfected into 293 cells at 60% density in Costar 6-well plates. One well of each group was treated with 1 μM murA as ligand at the time of transfection. 40 hours later, extracts of transfected 293 cells were made by scraping the cells from a well into a low volume of phosphate buffered saline, pelleting the cells, resuspending them in 200 μl 5×gel shift buffer (Yao et al., supra 1992), and sonicating with a Kontes cell disrupter for three 10-sec. bursts at output level 30. The extracts were then centrifuged to clear the lysate and the protein was quantified. […]
Comparative gel mobility shift analyses of FDs with control in vitro translated receptor complexes were performed using double stranded EcRE probes and labeled by Klenow fill using ^32P-dCTP and cold dGAT by standard methods. […] Band volumes were quantified using laser scanning densitometry.
An autoradiogram of FDs and controls treated either with control vehicle or with 1 μM of murA as ligand was made with markers indicating endodimer FD or wild type receptor-binding complex band shifts. […] FIG. 2A is a graph that quantifies endodimer-sized band volumes obtained from the autoradiogram.

The test system of experiment [3] is E4-luc reporter plasmid in 293 cells. Description: Transient transfection luciferase transactivation assay with E4-luc reporter. In kind it is cell-based, human. On the procedure: For quantitative transactivation analysis, transfections were performed in triplicate in 24-well plates by calcium-phosphate co-precipitation with 100 ng of an individual receptor, the reporter plasmid E4-luc, and pCH110 (SV40-β-galactosidase) as an internal control. Briefly, the reporter plasmid, E4-luc, was constructed of 4-tandem EcREs inserted upstream of a thymidine kinase gene minimal promoter directing luciferase expression. […] 1 μM ligand was added at the time of transfection, and the cells were harvested for luciferase assay 40 hours later. Harvested cell extracts were split, and one part was analyzed in a luminometer for luciferase activity and the other part was analyzed for β-galactosidase activity using an orthonitrophenyl galactoside assay by standard methods. Luciferase levels were normalized to β-galactosidase values to correct for slight differences in transfection efficiency.

B1: Drosophila melanogaster ultraspiracle protein (monomeric) (receptor, UniProt P20153 1-508, looked up)
chain: MDNCDQDASFRLSHIKEEVKPDISQLNDSNNSSFSPKAESPVPFMQAMSMVHVLPGSNSASSNNNSAGDAQMAQAPNSAGGSAAAAVQQQYPPNHPLSGSKHLCSICGDRASGKHYGVYSCEGCKGFFKRTVRKDLTYACRENRNCIIDKRQRNRCQYCRYQKCLTCGMKREAVQEERQRGARNAAGRLSASGGGSSGPGSVGGSSSQGGGGGGGVSGGMGSGNGSDDFMTNSVSRDFSIERIIEAEQRAETQCGDRALTFLRVGPYSTVQPDYKGAVSALCQVVNKQLFQMVEYARMMPHFAQVPLDDQVILLKAAWIELLIANVAWCSIVSLDDGGAGGGGGGLGHDGSFERRSPGLQPQQLFLNQSFSYHRNSAIKAGVSAIFDRILSELSVKMKRLNLDRRELSCLKAIILYNPDIRGIKSRAEIEMCREKVYACLDEHCRLEHPGDDGRFAQLLLRLPALRSISLKCQDHLFLFRITSDRPLEELFLEQLEAPPPPGLAMKLE
notes: also called Usp; dmUsp
For the molecule B1, the binding result in experiment [1] is listed as “binds”.

B2: human retinoid X receptor alpha (monomeric) (receptor, UniProt P19793 1-462, looked up)
chain: MDTKHFLPLDFSTQVNSSLTSPTGRGSMAAPSLHPSLGPGIGSPGQLHSPISTLSSPINGMGPPFSVISSPMGPHSMSVPTTPTLGFSTGSPQLSSPMNPVSSSEDIKPPLGLNGVLKVPAHPSGNMASFTKHICAICGDRSSGKHYGVYSCEGCKGFFKRTVRKDLTYTCRDNKDCLIDKRQRNRCQYCRYQKCLAMGMKREAVQEERQRGKDRNENEVESTSSANEDMPVERILEAELAVEPKTETYVEANMGLNPSSPNDPVTNICQAADKQLFTLVEWAKRIPHFSELPLDDQVILLRAGWNELLIASFSHRSIAVKDGILLATGLHVHRNSAHSAGVGAIFDRVLTELVSKMRDMQMDKTELGCLRAIVLFNPDSKGLSNPAEVEALREKVYASLEAYCKHKYPEQPGRFAKLLLRLPALRSIGLKCLEHLFFFKLIGDTPIDTFLMEMLEAPHQMT
notes: also called RXR; hRXR
As to B2, in experiment [1], the binding result is on record as “binds”.

B3: E5U: fusion protein: Drosophila EcR at amino terminus, 5 linker segments (65 amino acids), ultraspiracle protein (protein)
chain: MKRRWSNNGGFMRLPEESSSEVTSSSNGLVLPSGVNMSPSSLDSHDYCDQDLWLCGNESGSFGGSNGHGLSQQQQSVITLAMHGCSSTLPAQTTIIPINGNANGNGGSTNGQYVPGATNLGALANGMLNGGFNGMQQQIQNGHGLINSTTPSTPTTPLHLQQNLGGAGGGGIGGMGILHHANGTPNGLIGVVGGGGGVGLGVGGGGVGGLGMQHTPRSDSVNSISSGRDDLSPSSSLNGYSANESCDAKKSKKGPAPRVQEELCLVCGDRASGYHYNALTCEGCKGFFRRSVTKSAVYCCKFGRACEMDMYMRRKCQECRLKKCLAVGMRPECVVPENQCAMKRREKKAQKEKDKMTTSPSSQHGGNGSLASGGGQDFVKKEILDLMTCEPPQHATIPLLPDEILAKCQARNIPSLTYNQLAVIYKLIWYQDGYEQPSEEDLRRIMSQPDENESQTDVSFRHITEITILTVQLIVEFAKGLPAFTKIPQEDQITLLKACSSEVMMLRMARRYDHSSDSIFFANNRSYTRDSYKMAGMADNIEDLLHFCRQMFSMKVDNVEYALLTAIVIFSDRPGLEKAQLVEAIQSYYIDTLRIYILNRHCGDSMSLVFYAKLLSILTELRTLGNQNAEMCFSLKLKNRKLPKFLEEIWDVHAIPPSVQSHLQITQEENERLERAERMRASVGGAITAGIDCDSASTSAAAAAAQHQPQPQPQPQPSSLTQNDSQHQTQPQLQPQLPPQLQGQLQPQLQPQLQTQLQPQIQPQPQLLPVSAPVPASVTAPGSLSAVSTSSEYMGGSAAIGPITPATTSSITAAVTASSTTSAVPMGNGVGVGVGVGGNVSMYANAQTAMALMGVALHSHQEQLIGGVAVKSEHSTTAGPTGPGPGGGSGGGSGTGPGGGSGGGSGTGPGGGSGGGSGTGPGGGSGGGSGTGPGGGSGGGSGTMDNCDQDASFRLSHIKEEVKPDISQLNDSNNSSFSPKAESPVPFMQAMSMVHVLPGSNSASSNNNSAGDAQMAQAPNSAGGSAAAAVQQQYPPNHPLSGSKHLCSICGDRASGKHYGVYSCEGCKGFFKRTVRKDLTYACRENRNCIIDKRQRNRCQYCRYQKCLTCGMKREAVQEERQRGARNAAGRLSASGGGSSGPGSVGGSSSQGGGGGGGVSGGMGSGNGSDDFMTNSVSRDFSIERIIEAEQRAETQCGDRALTFLRVGPYSTVQPDYKGAVSALCQVVNKQLFQMVEYARMMPHFAQVPLDDQVILLKAAWIELLIANVAWCSIVSLDDGGAGGGGGGLGHDGSFERRSPGLQPQQLFLNQSFSYHRNSAIKAGVSAIFDRILSELSVKMKRLNLDRRELSCLKAIILYNPDIRGIKSRAEIEMCREKVYACLDEHCRLEHPGDDGRFAQLLLRLPALRSISLKCQDHLFLFRITSDRPLEELFLEQLEAPPPPGLAMKLE
As for B3, the “relative-fold increase in response element binding (endodimer band) resulting from ligand treatment” value in experiment [2] was found to be 0.9 fold. Besides, in experiment [3] (+ligand (1 μM murA) versus −ligand), the “Rel. Ind. = relative induction of individual receptor groups” value is 1.6 fold. In experiment [3] (transiently co-transfected 293 cells, 1 μM murA, relative to E4-luc reporter only), the “+Lig/E4 = luciferase activity vs. reporter only with ligand” value stood at 0.62. Besides, the “−Lig/E4 = luciferase activity vs. reporter only without ligand” value in experiment [3] (transiently co-transfected 293 cells, without ligand, relative to E4-luc reporter only) worked out at 0.41.

For the origin of these results see US7057015B1, “Hormone receptor functional dimers and methods of their use” (The Salk Institute for Biological Studies, priority 1999, dated 2006).
